Reference: patent US11357847B2, “Modified HSV gD protein and vaccine containing same” (KM Biologics Co., Ltd., priority 2017, dated 2022)
Positions count from the first letter of the chain named.

Experiments:
[1] = tested on: various anti-gD2 antibodies; assay: Reactivity of gD variants with anti-gD2 antibodies (competitive ELISA); assay type: binding, human; conditions: for Reactivity with anti-gD2 antibody 1 / Reactivity with anti-gD2 antibody 5 / Reactivity with anti-gD2 antibody 13 / Reactivity with anti-gD2 antibody 72 / Reactivity with anti-gD2 antibody 75 / Reactivity with anti-gD2 antibody 78 / Reactivity with anti-gD2 antibody 82: immobilized gD variant
From the text: Each anti-gD2 monoclonal antibody and each gD variant were expressed using an Expi293 expression system.

HVEM = target: T1, HVEM (Homo sapiens, UniProt Q92956); assay: Reactivity of HVEM with gD variants (competitive ELISA); assay type: binding; conditions: compared to the original gD1-315; FIG. 14
T1 sequence (Q92956 39-202): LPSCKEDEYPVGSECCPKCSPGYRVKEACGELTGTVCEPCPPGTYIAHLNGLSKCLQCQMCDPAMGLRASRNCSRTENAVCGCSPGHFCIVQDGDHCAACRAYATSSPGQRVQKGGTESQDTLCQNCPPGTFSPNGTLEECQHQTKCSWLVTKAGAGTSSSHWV
Experimental: From the above discussion, it can be strongly inferred that each variant takes the structure in which FR1 is bound to the receptor binding region. The reactivity of HVEM with each variant was then measured by competitive ELISA.
HVEM can bind gD for the first time when FR1 binds to the receptor binding region and takes a characteristic hairpin structure. […] FR3-deficient gD1-275v5-55 promoted FR1 binding and further HVEM binding over other gD1-315-based variants in which FR3 was present.

gD1-315 = gD1-315 (Human herpesvirus 2, UniProt P03172, R52Q); conditions: compared to wild-type gD immune serum; FIG. 33
Sequence of gD1-315 (P03172 26-340 R52Q): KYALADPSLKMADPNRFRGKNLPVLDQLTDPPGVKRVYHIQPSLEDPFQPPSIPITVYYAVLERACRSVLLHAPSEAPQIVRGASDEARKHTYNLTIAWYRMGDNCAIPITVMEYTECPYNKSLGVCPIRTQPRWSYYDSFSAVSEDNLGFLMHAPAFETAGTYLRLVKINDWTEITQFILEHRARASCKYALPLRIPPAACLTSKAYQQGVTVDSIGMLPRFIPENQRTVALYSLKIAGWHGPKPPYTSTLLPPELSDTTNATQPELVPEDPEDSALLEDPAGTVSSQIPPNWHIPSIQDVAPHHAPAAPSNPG
Experimental: IgG was purified from serum and analyzed by competitive methods using SPR (Biacore, Inc.) to make antibody amounts uniform.
The anti-gD2 antibody competition test was performed using Biacore 3000 (GE Healthcare), where, in all experiments, HBS-EP buffer (GE Healthcare) was used, the temperature was set to 25° C., and the flow rate was set to 20 μL/min. CMS senor chip (GE Healthcare) was used as the sensor chip, and the experiment was performed based on the recommended protocol. gD1-315-His was immobilized at about 300 RU on the chip surface, and for chip regeneration, glycine-hydrochloride buffer of 0.1 M and pH 2.0 was used and the chip was washed twice at a flow rate of 30 μL/min for 30 seconds. Procedures for competition and calculation of the competition rate were as follows. 10 μg/mL of each anti-gD2 antibody or buffer was applied to the chip under a condition of binding for 1 minute and dissociation for 2.5 minutes. 20 μg/mL of each immune serum purified by IgG was then applied under a condition of binding for 1 minute and dissociation for 5 minutes. After buffer application, the RU detected when immune serum was applied was set to 100%, and the decrease in immune serum response by anti-gD2 antibody application was calculated as the competitive rate.

gD-HVEM interactions = gD-HVEM interactions (Human herpesvirus 2, UniProt P03172, R52Q); conditions: compared to wild-type gD immune serum; FIG. 34
Sequence of gD-HVEM interactions (P03172 26-330 R52Q): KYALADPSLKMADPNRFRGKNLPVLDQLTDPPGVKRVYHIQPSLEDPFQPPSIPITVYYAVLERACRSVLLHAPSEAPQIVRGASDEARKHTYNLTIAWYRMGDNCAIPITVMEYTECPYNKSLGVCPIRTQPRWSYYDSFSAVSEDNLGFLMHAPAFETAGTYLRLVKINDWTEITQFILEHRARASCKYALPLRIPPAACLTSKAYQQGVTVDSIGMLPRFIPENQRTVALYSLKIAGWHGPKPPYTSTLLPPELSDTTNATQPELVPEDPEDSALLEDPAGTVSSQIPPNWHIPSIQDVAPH
Experimental: Inhibition of gD-HVEM interactions by modified gD immune serum was also analyzed. Specifically, 100 μL of gD1-305-cys-strep dimer adjusted to a concentration of 5 μg/mL with phosphate buffered saline was immobilized in a 96-well microtiter plate at 4° C. overnight. Subsequently, blocking and washing were performed as in the competitive ELISA method described above, 100 μL of IgG purified from each immune serum was added at any concentration and reacted at room temperature for one hour. Subsequently, 1 μg/mL of HVEM (Recombinant Human HVEM/TNFRSF14 Fc Chimera Protein, R&D SYSTEMS, Inc.) was diluted at any dilution fold with 1% BSA PBS, each added at 100 μL and reacted at room temperature for an additional hour. Each well was washed again with PBS-T, then, HRP-labeled antibody (anti-hFc/HRP/1% BSA PBS) was reacted. Each well was washed with PBS-T, then colored, and after the reaction was stopped with 1N sulfuric acid, absorbance of 450 nm/650 nm was measured.

splenocytes = assay: Cellular immune (T cell immune)-inducing activity, IFN-γ production response of splenocytes; assay type: in vivo, BALB/c mice; conditions: 3 μg/mouse; compared to the wild-type gD immune group; FIG. 25
Experimental: Furthermore, for cellular immune (T cell immune) inducing activity, the IFN-γ production response activity (recall activity) of splenocytes (a pool sample of four cases) prepared from mice immunized with gD1-315v3-55 as an example of a modified gD antigen and wild-type gD (gD1-315) (3 μg/mouse of the administration group) was compared and analyzed. Specifically, 5 weeks old BALB/c mice were immunized with 3 μg of antigen subcutaneously in back at 2-week intervals for a total of 3 times, and splenocytes were collected 2 weeks after the final immunization. Anti-IFN-γ was immobilized in a 96-well plate with a PVDF membrane on the bottom surface and cells were seeded at 1×10^6 cells/100 μL/well. Immune antigens were added as stimulants at 10 mM and the cells were cultured at 37° C. and 5% CO2 for 20 hours. The supernatant was removed and the anti-mouse IFNγ-HRP antibody was reacted, then HRP was stained with AEC reagents to count IFNγ-producing cell numbers with an Image Analyzer (CTL).

HSV-2 MS strain = assay: Mouse infection-prevention test of modified gD (genital herpes infection model); assay type: in vivo, BALB/c mice; set-up: key to Determination (vs gD1-315) / Determination# (vs gD1-315): ++: minimum effective dose based on the Significant difference test in three-fold common ratio relative to gD1-315(WT) of two or more doses stronger; +: those of one dose stronger; ±: those of an equivalent value
Experimental: Immunogenicity test of the modified gD antigen was performed using the wild-type gD antigen gD1-315 (WT) as a positive control and saline as a negative control. A predetermined amount of antigen was dissolved in saline for injection (saline) with MPLA (10 μg/mouse) and CpG (1 μg/mouse) and immunized to mice at a volume of 200 μL/mouse. BALB/c mice (5 weeks old, female) were used for the study and immunized subcutaneously in back at 2-week intervals for a total of 3 times (N=4 cases per group). Two weeks after the final immunization (third dose), blood was collected and serum was prepared for each individual. The prepared serum was serially diluted and assessed for neutralizing antibody-inducing activity against HSV-2 (50% plaque number-reducing activity).
An infection-prevention test in the preventive administration of modified gD antigen was performed using a mouse genital herpes infection model. Similar to the mouse immunogenicity test described above, mice were immunized with the number of N=10 cases per group. Depo-Provera was inoculated subcutaneously at 2 mg/mouse 6 days prior to viral inoculation to improve the multiplicity of infection upon viral inoculation 2 weeks after final immunization (third dose). 5×10^5 PFU/20 μL HSV-2 MS strain was inoculated transvaginally under anesthesia and observed for 21 days. Infection prevention ability was evaluated using survival time (survival rate) as index.
The infection model of the mouse genital herpes infection model was used to evaluate infection prevention ability of various modified gD in preventive administration. The number of animal cases in each group was set to n=10, and wild-type gD (gD1-315) was used as a positive control and saline was used as a negative control. The experiments were performed a total of four times (experiments 1-4) and four doses of 0.1 μg/mouse/time, 0.03 μg/mouse/time, 0.01 μg/mouse/time and 0.003 μg/mouse/time were set for all of the positive control, negative control, and subject modified gD antigen. Depo-Provera was inoculated subcutaneously at 2 mg/mouse 6 days prior to viral inoculation to improve the multiplicity of infection upon viral inoculation 2 weeks after final immunization (third dose). 5×10^5 PFU/20 HSV-2 MS strain was inoculated transvaginally under anesthesia and observed for 21 days. Infection prevention ability was evaluated using survival time (survival rate) as index. Mean values of those were plotted in the graph. A Significant difference test for the negative control group was performed by the Kaplan-Meier method, and those with a minimum effective dose based on the Significant difference test in three-fold common ratio relative to wild type gD of two or more doses stronger were determined to be “++”, those of one dose stronger were determined to be “+”, and those of an equivalent value were determined to be “±”.

[2] = Experiment 1, 0.003 μg/head/time
[3] = Experiment 1, 0.01 μg/head/time
[4] = Experiment 1, 0.03 μg/head/time
[5] = Experiment 2, 0.003 μg/head/time
[6] = Experiment 2, 0.01 μg/head/time
[7] = Experiment 2, 0.03 μg/head/time

B1: gD1-315v5-55: gD1-315 with glycochains at SC-A, SC-F, linked to T cell epitope peptide DP5 (protein)
chain: KYALADPSLKMADPNRFRGKNLPVLDQLTDPPGVKRVYHIQPSLEDPFQNASIPITVYYAVLERACRSVLLHAPSEAPQIVRGASDEARKHTYNLTIAWYRMGDNCAIPITVMEYTECPYNKSLGVCPIRTQPRWSYYDSFSAVSEDNLGFLMHAPAFETAGTYLRLVKINDWTEITQFILEHRANASCKYALPLRIPPAACLTSKAYQQGVTVDSIGMLPRFIPENQRTVALYSLKIAGWHGPKPPYTSTLLPPELSDTTNATQPELVPEDPEDSALLEDPAGTVSSQIPPNWHIPSIQDVAPHHAPAAPSNPGGPGPGIAFWVRRRAQMAPKPLRIAFWVRRRAQMAPKPLRHHHHHH
modifications: left off: small tags and cut ends
[1]; FIG. 13
  Relative reactivity with antibody No. 82 (gD1-315 wild-type set to 1): approximately 12 fold
[1]
  Reactivity with anti-gD2 antibody 1: + ((+): 70% or more)
  Reactivity with anti-gD2 antibody 5: − ((−): less than 30%)
  Reactivity with anti-gD2 antibody 13: + ((+): 70% or more)
  Reactivity with anti-gD2 antibody 72: − ((−): less than 30%)
  Reactivity with anti-gD2 antibody 75: − ((−): less than 30%)
  Reactivity with anti-gD2 antibody 78: − ((−): less than 30%)
  Reactivity with anti-gD2 antibody 82: + ((+): 70% or more)
HVEM
  Reactivity with HVEM: highest reactivity
gD1-315
  Percentage of antibodies in immune serum competing with antibody No. 1: little change
  Percentage of antibodies in immune serum competing with antibody No. 72: tend to decrease
  Percentage of antibodies in immune serum competing with antibody No. 82: increased percentage
gD-HVEM interactions
  Inhibition of gD-HVEM interaction by immune serum IgG: strong inhibitory effects

B2: gD1-315v3-55: gD1-315 with glycochain at SC-F, linked to two DP5 T cell epitope peptides (protein)
chain: B1 chain with N186R
modifications: left off: small tags and cut ends
[1]
  Reactivity with anti-gD2 antibody 1: + ((+): 70% or more)
  Reactivity with anti-gD2 antibody 5: − ((−): less than 30%)
  Reactivity with anti-gD2 antibody 13: + ((+): 70% or more)
  Reactivity with anti-gD2 antibody 72: − ((−): less than 30%)
  Reactivity with anti-gD2 antibody 75: − ((−): less than 30%)
  Reactivity with anti-gD2 antibody 78: − ((−): less than 30%)
  Reactivity with anti-gD2 antibody 82: + ((+): 70% or more)
splenocytes
  IFN-γ production response activity (recall activity) of splenocytes: higher response activity
HSV-2 MS strain; [2]
  Mean survival time: >16 days
  Significant difference test (vs saline): *** (*** p < 0.001)
HSV-2 MS strain; [3]
  Mean survival time: 15 days
  Significant difference test (vs saline): *** (*** p < 0.001)
HSV-2 MS strain; [4]
  Mean survival time: >21 days
  Significant difference test (vs saline): *** (*** p < 0.001)
HSV-2 MS strain; Experiment 1, 0.1 μg/head/time
  Mean survival time: >21 days
  Significant difference test (vs saline): *** (*** p < 0.001)
HSV-2 MS strain; Experiment 1, minimum effective dose relative to gD1-315(WT)
  Determination (vs gD1-315): ++
HSV-2 MS strain; [5]
  Mean survival time: 7 days
  Significant difference test (vs saline): N.S.
HSV-2 MS strain; [6]
  Mean survival time: >16 days
  Significant difference test (vs saline): N.S.
HSV-2 MS strain; [7]
  Mean survival time: >22 days
  Significant difference test (vs saline): *** (*** p < 0.001)
HSV-2 MS strain; Experiment 2, 0.1 μg/head/time
  Mean survival time: >22 days
  Significant difference test (vs saline): *** (*** p < 0.001)
HSV-2 MS strain; Experiment 2, minimum effective dose relative to gD1-315(WT)
  Determination# (vs gD1-315): +
gD1-315
  Percentage of antibodies in immune serum competing with antibody No. 1: little change
  Percentage of antibodies in immune serum competing with antibody No. 72: tend to decrease
  Percentage of antibodies in immune serum competing with antibody No. 82: increased percentage
